Results from patent publication US20220073599A1.

How the values were obtained:
[1] = target: human VEGFA-121-His (human) (UniProt P15692); experiment: KinExA equilibrium titration in solution, VEGFA-121
human VEGFA-165 (human) = human VEGFA-165 (human) (UniProt P15692); experiment: KinExA, VEGFA-165; set-up for VEGFA-165 not described
Chain of human VEGFA-165 (human) (P15692 other isoform, or with tags, fused parts or gaps limits assumed): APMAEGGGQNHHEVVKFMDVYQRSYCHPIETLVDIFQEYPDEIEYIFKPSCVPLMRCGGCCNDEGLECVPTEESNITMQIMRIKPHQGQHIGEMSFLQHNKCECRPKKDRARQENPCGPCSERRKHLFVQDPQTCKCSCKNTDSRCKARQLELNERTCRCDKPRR

Chain of Aflibercept-analogue (Fc fusion) (chain): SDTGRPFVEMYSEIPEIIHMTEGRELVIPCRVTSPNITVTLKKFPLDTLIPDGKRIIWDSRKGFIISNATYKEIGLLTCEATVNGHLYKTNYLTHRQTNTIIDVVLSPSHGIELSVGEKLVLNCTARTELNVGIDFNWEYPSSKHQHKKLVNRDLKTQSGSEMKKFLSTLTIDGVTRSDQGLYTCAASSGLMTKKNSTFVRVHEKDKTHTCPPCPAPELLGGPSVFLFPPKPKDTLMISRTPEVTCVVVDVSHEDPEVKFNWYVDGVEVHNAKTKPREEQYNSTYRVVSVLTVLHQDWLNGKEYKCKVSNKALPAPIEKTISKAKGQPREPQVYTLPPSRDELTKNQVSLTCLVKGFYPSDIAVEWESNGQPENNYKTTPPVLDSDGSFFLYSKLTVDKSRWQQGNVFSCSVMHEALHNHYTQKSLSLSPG
Chain of human VEGFA-121-His (human) (P15692 other isoform, or with tags, fused parts or gaps): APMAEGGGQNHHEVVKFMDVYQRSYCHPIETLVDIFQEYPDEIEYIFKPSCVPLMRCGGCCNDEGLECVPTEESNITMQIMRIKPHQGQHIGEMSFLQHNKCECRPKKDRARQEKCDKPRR

Kd [1]: 0.2 pM | Kd (human VEGFA-165 (human)): 0.1 pM
Substance: Aflibercept-analogue (Fc fusion)
